Data on 1 protein can be found in ChEMBL document CHEMBL1671717, “In vitro potentiation of carbapenems with ME1071, a novel metallo-beta-lactamase inhibitor, against metallo-beta-lactamase- producing Pseudomonas aeruginosa clinical isolates” (Antimicrob Agents Chemother, 2010).

Substrate in series [1]: C[C@@H](O)[C@H]1C(=O)N2C(C(=O)O)=C(SCCNC=N)C[C@H]12
The experiment in a line: (§1) Activity of Pseudomonas aeruginosa beta-lactamase IMP-1 by UV spectrophotometric analysis.

Substrate in series [2]: C[C@@H](O)[C@H]1C(=O)N2C(C(=O)[O-])=C(SC3Cn4cnc[n+]4C3)[C@H](C)[C@H]12
Described as §1.

Substrate in series [3]: C[C@@H](O)[C@H]1C(=O)N2C(C(=O)O)=C(SCCNC=N)C[C@H]12
The experiment in a line: (§2) Ratio of Kcat to Km for Pseudomonas aeruginosa beta-lactamase IMP-1 by UV spectrophotometric analysis.

Substrate in series [4]: C[C@@H](O)[C@H]1C(=O)N2C(C(=O)O)=C(S[C@@H]3CN[C@H](C(=O)N(C)C)C3)[C@H](C)[C@H]12
The series is described as §2.

Substrate in series [5]: C[C@@H](O)[C@H]1C(=O)N2C(C(=O)[O-])=C(SC3Cn4cnc[n+]4C3)[C@H](C)[C@H]12
The description is as §2.

B1: Beta-lactamase (Pseudomonas aeruginosa), Q79MP6 (protein)
chain: MSKLSVFFIFLFCSIATAAESLPDLKIEKLDEGVYVHTSFEEVNGWGVVPKHGLVVLVNAEAYLIDTPFTAKDTEKLVTWFVERGYKIKGSISSHFHSDSTGGIEWLNSRSIPTYASELTNELLKKDGKVQATNSFSGVNYWLVKNKIEVFYPGPGHTPDNVVVWLPERKILFGGCFIKPYGLGNLGDANIEAWPKSAKLLKSKYGKAKLVVPSHSEVGDASLLKLTLEQAVKGLNESKKPSKPSN
By Km is commonly meant the concentration of substrate that gives half-maximal velocity. As a reminder, the kcat is the number of substrate molecules converted per active site and unit of time at saturation. What is called kcat/Km is the second-order rate constant that governs catalysis at low substrate concentration. In the case of B1, the Km worked out at 35.1 µM in series [1] and 167 µM in series [2]. Further, the catalytic constant (kcat) was determined as 63.5 s⁻¹ in series [1] and 44.7 s⁻¹ in series [2]. Further, the kcat/Km was 1.8e+06 M⁻¹ s⁻¹ in series [3], 200000 M⁻¹ s⁻¹ in series [4] and 300000 M⁻¹ s⁻¹ in series [5].
